Seven molecules from patent US20180155451A1 (published 2018) can be followed below.

In test [1] the target is T1, FcγRIIIa extracellular domain with C-terminal His tag (human, UniProt P08637 17-208).
T1 construct: extracellular domain; also called FcgRIIIa; 3a; not shown: His tag at the C terminus
In words: SPR relative binding; GpH7-B3/GpL16-k0 = 100. On the procedure: (§1) Analysis of interaction between objective antibody and the FcγR was carried out using Biacore T100 (GE Healthcare). HBS-EP+ (GE Healthcare) was used as the running buffer, and the measurement temperature was set to 25° C. Chips produced by immobilizing the antigen peptide by the amine coupling method to a Series S Sencor Chip CM5 (GE Healthcare), or alternatively, chips produced by allowing preliminarily biotinylated antigen peptides to interact with and immobilize onto a Series S Sensor Chip SA (certified) (GE Healthcare) were used. Antibodies of interest were captured onto an antigen peptide-immobilized chip, and allowed to interact to each FcγR diluted with running buffer. To regenerate and repeatedly use the chip, the antibodies captured on the chip were washed off by reacting 10 mM glycine-HCl, pH 1.5.
The FcγR-binding activity of each antibody was assessed primarily using as an indicator the FcγR-binding activity and dissociation constant for FcγR.

The target in test [2] is T2, FcγRIIa R (human, UniProt P12318 34-217).
T2 construct: extracellular domain; also called FcgRIIa R type; 2aR
T2 sequence (looked up): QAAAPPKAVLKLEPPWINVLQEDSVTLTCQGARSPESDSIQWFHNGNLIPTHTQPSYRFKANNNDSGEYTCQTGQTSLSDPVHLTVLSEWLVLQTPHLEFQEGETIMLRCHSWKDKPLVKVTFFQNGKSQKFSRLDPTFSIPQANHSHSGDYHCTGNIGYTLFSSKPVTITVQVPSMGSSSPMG
In words: SPR (Biacore), antibody captured, FcγR as analyte; relative binding. On the procedure: (§2) The heterodimerized antibodies He Abs in which one of the H chains was introduced with an alteration were assayed for their binding activities to each activating FcγR and inhibitory FcγR according to the method described in Example 4. […] The activating FcγRs in FIGS. 26, 27, 28, and 29 are FcγRIa, FcγRIIa (R), FcγRIIa (H), and FcγRIIIa, respectively.
as §1

The target in another test is T3, FcγRIIb (human, UniProt P31994 43-217).
T3 construct: extracellular domain; also called FcgRIIb; 2b
T3 sequence (looked up): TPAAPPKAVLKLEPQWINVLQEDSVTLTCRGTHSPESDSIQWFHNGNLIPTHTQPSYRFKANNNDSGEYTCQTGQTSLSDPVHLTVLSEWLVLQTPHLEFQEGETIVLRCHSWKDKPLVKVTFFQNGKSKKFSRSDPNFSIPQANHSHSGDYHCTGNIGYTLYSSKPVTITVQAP
The test is described as above. On the procedure: as §2, §1

For test [3], the target named is T2, FcγRIIa R. In words: SPR; He/Con_2aR divided by He/Con_2b (FcγRIIb as reference). On the procedure:
as §2, §1
On the technique in general: Surface plasmon resonance follows binding to a sensor surface in real time, without labels.

T1 sequence (P08637 17-208): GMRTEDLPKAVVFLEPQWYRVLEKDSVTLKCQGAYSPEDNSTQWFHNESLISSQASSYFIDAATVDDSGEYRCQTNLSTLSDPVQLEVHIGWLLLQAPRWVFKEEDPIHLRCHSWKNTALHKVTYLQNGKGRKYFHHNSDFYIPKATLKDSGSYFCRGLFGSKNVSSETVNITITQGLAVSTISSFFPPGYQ

B1: GpH7-B16/GpL16-k0 (antibody, human IgG1, kappa)
heavy: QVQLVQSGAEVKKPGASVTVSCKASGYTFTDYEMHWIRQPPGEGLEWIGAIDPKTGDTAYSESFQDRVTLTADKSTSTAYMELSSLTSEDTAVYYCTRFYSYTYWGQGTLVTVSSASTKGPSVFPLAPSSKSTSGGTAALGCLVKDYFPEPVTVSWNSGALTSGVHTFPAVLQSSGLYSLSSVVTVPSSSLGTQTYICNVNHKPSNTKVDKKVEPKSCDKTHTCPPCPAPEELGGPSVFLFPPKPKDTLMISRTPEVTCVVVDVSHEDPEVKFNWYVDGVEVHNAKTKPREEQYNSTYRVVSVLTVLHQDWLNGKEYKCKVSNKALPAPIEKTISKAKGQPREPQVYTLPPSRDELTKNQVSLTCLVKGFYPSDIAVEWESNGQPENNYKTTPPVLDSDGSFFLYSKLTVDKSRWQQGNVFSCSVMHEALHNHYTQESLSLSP
light: DIVMTQSPLSLPVTPGEPASISCQASESLVHSNRNTYLHWYLQKPGQSPQLLIYKVSNRFSGVPDRFSGSGSGTDFTLKISRVEAEDVGVYYCSQNTHVPPTFGQGTKVEIERTVAAPSVFIFPPSDEQLKSGTASVVCLLNNFYPREAKVQWKVDNALQSGNSQESVTEQDSKDSTYSLSSTLTLSKADYEKHKVYACEVTHQGLSSPVTKSFNRGEC
notes: also called Ho Ab L234_10E; GpH7-B3 variant L234_10E/GpL16-k0
In the case of B1, the Ho/Con_3a in test [1] was 64.7 % of control.

B2: GpH7-A5/GpH7-B3 variant E269_01G/GpL16-k0 (antibody, human IgG1, kappa)
heavy 1: not shown
heavy 2: not shown
light: DIVMTQSPLSLPVTPGEPASISCQASESLVHSNRNTYLHWYLQKPGQSPQLLIYKVSNRFSGVPDRFSGSGSGTDFTLKISRVEAEDVGVYYCSQNTHVPPTFGQGTKVEIERTVAAPSVFIFPPSDEQLKSGTASVVCLLNNFYPREAKVQWKVDNALQSGNSQESVTEQDSKDSTYSLSSTLTLSKADYEKHKVYACEVTHQGLSSPVTKSFNRGEC
notes: heterodimerized antibody, mutation in the GpH7-B3 chain only; also called He Ab
In the case of B2, in the test with FcγRIIa R [2], the “He/Con_2aR (IIaR binding)” value was 65.3 % of GpH7-A5/GpH7-B3/GpL16-k0 (=100). In addition, in the test with FcγRIIb, the “He/Con_2b (IIb binding)” value is 51.5 % of GpH7-A5/GpH7-B3/GpL16-k0 (=100). In addition, the “IIaR/IIb (He_2aR/2b)” value in the test with FcγRIIa R [3] came out at 1.27 ratio.

B3: GpH7-A5/GpH7-B3 variant E269_02A/GpL16-k0 (antibody, human IgG1, kappa)
heavy 1: not shown
heavy 2: not shown
light: DIVMTQSPLSLPVTPGEPASISCQASESLVHSNRNTYLHWYLQKPGQSPQLLIYKVSNRFSGVPDRFSGSGSGTDFTLKISRVEAEDVGVYYCSQNTHVPPTFGQGTKVEIERTVAAPSVFIFPPSDEQLKSGTASVVCLLNNFYPREAKVQWKVDNALQSGNSQESVTEQDSKDSTYSLSSTLTLSKADYEKHKVYACEVTHQGLSSPVTKSFNRGEC
notes: as for B2
In the case of B3, the “He/Con_2aR (IIaR binding)” value in the test with FcγRIIa R [2] was 65.3 % of GpH7-A5/GpH7-B3/GpL16-k0 (=100). Moreover, the “He/Con_2b (IIb binding)” value in the test with FcγRIIb is 49.9 % of GpH7-A5/GpH7-B3/GpL16-k0 (=100). Besides, the “IIaR/IIb (He_2aR/2b)” value with FcγRIIa R [3] stood at 1.31 ratio.

B4: GpH7-B17/GpL16-k0 (antibody, human IgG1, kappa)
heavy: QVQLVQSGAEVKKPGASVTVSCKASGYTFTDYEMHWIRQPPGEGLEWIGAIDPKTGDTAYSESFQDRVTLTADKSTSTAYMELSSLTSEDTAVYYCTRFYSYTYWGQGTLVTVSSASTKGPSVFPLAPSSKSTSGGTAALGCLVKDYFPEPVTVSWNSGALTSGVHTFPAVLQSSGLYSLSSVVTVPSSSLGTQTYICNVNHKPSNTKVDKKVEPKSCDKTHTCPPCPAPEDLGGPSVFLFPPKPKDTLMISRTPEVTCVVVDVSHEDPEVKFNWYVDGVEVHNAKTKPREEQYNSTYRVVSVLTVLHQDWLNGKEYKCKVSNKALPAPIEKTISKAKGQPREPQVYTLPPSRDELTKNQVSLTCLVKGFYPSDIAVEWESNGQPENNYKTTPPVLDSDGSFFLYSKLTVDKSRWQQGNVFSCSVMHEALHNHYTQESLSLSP
light: DIVMTQSPLSLPVTPGEPASISCQASESLVHSNRNTYLHWYLQKPGQSPQLLIYKVSNRFSGVPDRFSGSGSGTDFTLKISRVEAEDVGVYYCSQNTHVPPTFGQGTKVEIERTVAAPSVFIFPPSDEQLKSGTASVVCLLNNFYPREAKVQWKVDNALQSGNSQESVTEQDSKDSTYSLSSTLTLSKADYEKHKVYACEVTHQGLSSPVTKSFNRGEC
notes: also called Ho Ab L234_09D; GpH7-B3 variant L234_09D/GpL16-k0
On to B4, for which the Ho/Con_3a in test [1] is 52.8 % of control.

B5: GpH7-A5/GpH7-B3 variant D265_12R/GpL16-k0 (antibody, human IgG1, kappa)
heavy 1: not shown
heavy 2: not shown
light: DIVMTQSPLSLPVTPGEPASISCQASESLVHSNRNTYLHWYLQKPGQSPQLLIYKVSNRFSGVPDRFSGSGSGTDFTLKISRVEAEDVGVYYCSQNTHVPPTFGQGTKVEIERTVAAPSVFIFPPSDEQLKSGTASVVCLLNNFYPREAKVQWKVDNALQSGNSQESVTEQDSKDSTYSLSSTLTLSKADYEKHKVYACEVTHQGLSSPVTKSFNRGEC
notes: as for B2
For the molecule B5, the “He/Con_2aR (IIaR binding)” value with FcγRIIa R [2] was 32.2 % of GpH7-A5/GpH7-B3/GpL16-k0 (=100). The “He/Con_2b (IIb binding)” value in the test with FcγRIIb is 15 % of GpH7-A5/GpH7-B3/GpL16-k0 (=100). In addition, the “IIaR/IIb (He_2aR/2b)” value in the test with FcγRIIa R [3] was 2.15 ratio.

B6: GpH7-A5/GpH7-B3 variant D265_10E/GpL16-k0 (antibody, human IgG1, kappa)
heavy 1: not shown
heavy 2: not shown
light: DIVMTQSPLSLPVTPGEPASISCQASESLVHSNRNTYLHWYLQKPGQSPQLLIYKVSNRFSGVPDRFSGSGSGTDFTLKISRVEAEDVGVYYCSQNTHVPPTFGQGTKVEIERTVAAPSVFIFPPSDEQLKSGTASVVCLLNNFYPREAKVQWKVDNALQSGNSQESVTEQDSKDSTYSLSSTLTLSKADYEKHKVYACEVTHQGLSSPVTKSFNRGEC
notes: as for B2
B6: in the test with FcγRIIa R [2], the “He/Con_2aR (IIaR binding)” value is 58.2 % of GpH7-A5/GpH7-B3/GpL16-k0 (=100). For the same molecule, the “He/Con_2b (IIb binding)” value with FcγRIIb was 38.2 % of GpH7-A5/GpH7-B3/GpL16-k0 (=100). The “IIaR/IIb (He_2aR/2b)” value with FcγRIIa R [3] is 1.52 ratio.

B7: GpH7-A5/GpH7-B3 variant D265_18N/GpL16-k0 (antibody, human IgG1, kappa)
heavy 1: not shown
heavy 2: not shown
light: DIVMTQSPLSLPVTPGEPASISCQASESLVHSNRNTYLHWYLQKPGQSPQLLIYKVSNRFSGVPDRFSGSGSGTDFTLKISRVEAEDVGVYYCSQNTHVPPTFGQGTKVEIERTVAAPSVFIFPPSDEQLKSGTASVVCLLNNFYPREAKVQWKVDNALQSGNSQESVTEQDSKDSTYSLSSTLTLSKADYEKHKVYACEVTHQGLSSPVTKSFNRGEC
notes: as for B2
For B7, the “He/Con_2aR (IIaR binding)” value in the test with FcγRIIa R [2] is 12.4 % of GpH7-A5/GpH7-B3/GpL16-k0 (=100). Besides, in the test with FcγRIIb, the “He/Con_2b (IIb binding)” value is 6.1 % of GpH7-A5/GpH7-B3/GpL16-k0 (=100). In the test with FcγRIIa R [3], the “IIaR/IIb (He_2aR/2b)” value stood at 2.02 ratio.
